Data taken from patent US20130195871A1 (AbbVie / Abbott, published 2013).

Tests used:
[1] = target: T1, Recombinant Human ErbB3/FC Chimera-His tag (human, UniProt P21860 20-643); experiment: SPR (Biacore)
T1 construct: bought reagent
Method: (§1) The BIACORE assay (Biacore, Inc, Piscataway, N.J.) determined the affinity of antibodies or DVD-Ig proteins with kinetic measurements of on-rate and off-rate constants. Binding of antibodies or DVD-Ig proteins to a target antigen (for example, a purified recombinant target antigen) was determined by surface plasmon resonance-based measurements with a Biacore® 1000 or 3000 instrument (Biacore AB, Uppsala. Sweden) using running HBS-EP (10 mM HEPES [pH 7.4], 150 mM NaCl, 3 mM EDTA, and 0.005% surfactant P20) at 25° C. […] For example, approximately 5000 RU of goat anti-mouse IgG, (Fcγ), fragment specific polyclonal antibody (Pierce Biotechnology Inc, Rockford, Ill.) diluted in 10 mM sodium acetate (pH 4.5) was directly immobilized across a CM5 research grade biosensor chip using a standard amine coupling kit according to manufacturer's instructions and procedures at 25 μg/ml. Unreacted moieties on the biosensor surface were blocked with ethanolamine. Modified carboxymethyl dextran surface in flowcell 2 and 4 was used as a reaction surface. Unmodified carboxymethyl dextran without goat anti-mouse IgG in flow cell 1 and 3 was used as the reference surface. For kinetic analysis, rate equations derived from the 1:1 Langmuir binding model were fitted simultaneously to association and dissociation phases of all eight injections (using global fit analysis) with the use of Biaevaluation 4.0.1 software. Purified antibodies or DVD-Ig proteins were diluted in HEPES-buffered saline for capture across goat anti-mouse IgG specific reaction surfaces. Antibodies or DVD-Ig proteins to be captured as a ligand (25 μg/ml) were injected over reaction matrices at a flow rate of 5 μl/minute. The association and dissociation rate constants, kₒₙ (M⁻¹s⁻¹) and koff (s⁻¹) were determined under a continuous flow rate of 25 μl/minute. Rate constants were derived by making kinetic binding measurements at different antigen concentrations ranging from 10-200 nM. The equilibrium dissociation constant (M) of the reaction between antibodies or DVD-Ig proteins and the target antigen was then calculated from the kinetic rate constants by the following formula: KD=koff/kₒₙ. Binding was recorded as a function of time and kinetic rate constants were calculated.

[2] = target: T1, Recombinant Human ErbB3/FC Chimera-His …; experiment: SPR (Biacore), C-terminal VD;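 also: surface plasmon resonance with DVD-Ig proteins captured on an anti-IgG chip and recombinant antigen flowed over in HBS-EP buffer, Langmuir global fit, KD taken as koff/kon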
[3] = target: T2, Recombinant Human MSP Receptor ECD-His tag (human, UniProt Q04912 25-957); experiment: SPR (Biacore), N-terminal VD;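 also: capture of antibodies or DVD-Ig proteins on an anti-mouse IgG chip surface, recombinant antigen injected at 10–200 nM in HBS-EP running buffer at 25 °C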
T2 construct: extracellular domain; bought reagent; also called RON
Method: as §1

[4] = target: T3, Recombinant Human EGFR ECD (human, UniProt P00533 25-645); experiment: SPR (Biacore), C-terminal VD;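 also: surface plasmon resonance with DVD-Ig proteins captured on an anti-IgG chip and recombinant antigen flowed over in HBS-EP buffer, Langmuir global fit, KD taken as koff/kon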
T3 construct: extracellular domain; bought reagent

Recombinant Human IGF1R [5] = target: T4, Recombinant Human IGF1R (human, UniProt P08069 31-932); experiment: SPR (Biacore), N-terminal VD;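 also: capture of antibodies or DVD-Ig proteins on an anti-mouse IgG chip surface, recombinant antigen injected at 10–200 nM in HBS-EP running buffer at 25 °C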
T4 construct: bought reagent
Method: as §1

[6] = target: T3, Recombinant Human EGFR ECD; experiment: SPR (Biacore), N-terminal VD;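 also: capture of antibodies or DVD-Ig proteins on an anti-mouse IgG chip surface, recombinant antigen injected at 10–200 nM in HBS-EP running buffer at 25 °C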
Method: as §1

Recombinant Human IGF1R [7] = target: T4, Recombinant Human IGF1R; experiment: SPR (Biacore)
Method: as §1

B1: DVD2238 (bispecific antibody)
VH: QVQLQQWGAGLLKPSETLSLTCAVYGGSFSGYYWSWIRQPPGKGLEWIGEINHSGSTNYNPSLKSRVTISVETSKNQFSLKLSSVTAADTAVYYCARDKWTWYFDLWGRGTLVTVSSASTKGPEVQLVESGGGLVQPGGSLRLSCAASGFTFSIYSMNWVRQAPGKGLEWVSYISSSSSTIYYADSVKGRFTISRDNAKNSLYLQMNSLRDEDTAVYYCARDRGDFDAFDIWGQGTMVTVSS
VL: DIEMTQSPDSLAVSLGERATINCRSSQSVLYSSSNRNYLAWYQQNPGQPPKLLIYWASTRESGVPDRFSGSGSGTDFTLTISSLQAEDVAVYYCQQYYSTPRTFGQGTKVEIKRTVAAPDIQMTQSPSSLSASVGDRVTITCQASQDITNYLNWYQQKPGKAPKLLIYDASNLETGVPSRFSGSGSGTDFTFTISSLQPEDIATYNCQQCENFPITFGQGTRLEIK
notes: DVD-Ig, outer AB062 / inner AB063
[1]
  Kd: 5.9 nM
  koff: 0.0003 s⁻¹
  kon: 51000 M⁻¹ s⁻¹

B2: DVD2242 (bispecific antibody)
VH: QVQLQQWGAGLLKPSETLSLTCAVYGGSFSGYYWSWIRQPPGKGLEWIGEINHSGSTNYNPSLKSRVTISVETSKNQFSLKLSSVTAADTAVYYCARDKWTWYFDLWGRGTLVTVSSASTKGPSVFPLAPEVQLVESGGGLVQPGGSLRLSCAASGFTFSIYSMNWVRQAPGKGLEWVSYISSSSSTIYYADSVKGRFTISRDNAKNSLYLQMNSLRDEDTAVYYCARDRGDFDAFDIWGQGTMVTVSS
VL: B1 VL
notes: as for B1
[1]
  Kd: 7.6 nM
  koff: 0.00051 s⁻¹
  kon: 67000 M⁻¹ s⁻¹

B3: DVD2320 (bispecific antibody)
VH: EVQLVQSGGGLVKPGGSLRLSCAASGFTFSSYAMHWVRQAPGKGLEWVAVISYDGSNKYYADSVKGRFTISRDNSKNTLYLQMNSLRAEDTAVYYCARFSGWPNNYYYYGMDVWGQGTTVTVSSASTKGPEVQLLESGGGLVQPGGSLRLSCAASGFTFSHYVMAWVRQAPGKGLEWVSSISSSGGWTLYADSVKGRFTISRDNSKNTLYLQMNSLRAEDTAVYYCTRGLKMATIFDYWGQGTLVTVSS
VL: DVVMTQSPLSLPVTPGEPASISCRSSQSLLHSNGFNYVDWYLQKPGQSPHLLIYFGSYRASGVPDRFSGSGSGTDFTLKISRVEAEDVGVYYCMQALQTPPWTFGQGTKVEIRRTVAAPQSALTQPASVSGSPGQSITISCTGTSSDVGSYNVVSWYQQHPGKAPKLIIYEVSQRPSGVSNRFSGSKSGNTASLTISGLQTEDEADYYCCSYAGSSIFVIFGGGTKVTVL
notes: DVD-Ig, outer AB005 / inner AB116
[2]
  binding result: no binding (tested: 10-200 nM)
[3]
  Kd: 25 nM
  koff: 0.00094 s⁻¹
  kon: 37000 M⁻¹ s⁻¹

B4: DVD2284 (bispecific antibody)
VH: EVQLVQSGAEVKKPGSSVKVSCKASGGTFSSYAISWVRQAPGQGLEWMGGIIPIFGTANYAQKFQGRVTITADKSTSTAYMELSSLRSEDTAVYYCARAPLRFLEWSTQDHYYYYYMDVWGKGTTVTVSSASTKGPQVQLQESGPGLVKPSQTLSLTCTVSGYSISSDFAWNWIRQPPGKGLEWMGYISYSGNTRYQPSLKSRITISRDTSKNQFFLKLNSVTAADTATYYCVTAGRGFPYWGQGTLVTVSS
VL: SSELTQDPAVSVALGQTVRITCQGDSLRSYYATWYQQKPGQAPILVIYGENKRPSGIPDRFSGSSSGNTASLTITGAQAEDEADYYCKSRDGSGQHLVFGGGTKLTVLGQPKAAPDIQMTQSPSSMSVSVGDRVTITCHSSQDINSNIGWLQQKPGKSFKGLIYHGTNLDDGVPSRFSGSGSGTDYTLTISSLQPEDFATYYCVQYAQFPWTFGGGTKLEIK
[4]
  Kd: 6.1 nM
  koff: 0.00016 s⁻¹
  kon: 26000 M⁻¹ s⁻¹
Recombinant Human IGF1R [5]
  Kd: 7.4 nM
  koff: 0.00019 s⁻¹
  kon: 26000 M⁻¹ s⁻¹

B5: DVD2274 (bispecific antibody)
VH: EVQLVESGGGLVQPGGSLRLSCAASGFTFTDYTMDWVRQAPGKGLEWVADVNPNSGGSIYNQRFKGRFTLSVDRSKNTLYLQMNSLRAEDTAVYYCARNLGPSFYFDYWGQGTLVTVSSASTKGPQVQLQQWGAGLLKPSETLSLTCAVYGGSFSGYYWSWIRQPPGKGLEWIGEINHSGSTNYNPSLKSRVTISVETSKNQFSLKLSSVTAADTAVYYCARDKWTWYFDLWGRGTLVTVSS
VL: DIQMTQSPSSLSASVGDRVTITCKASQDVSIGVAWYQQKPGKAPKLLIYSASYRYTGVPSRFSGSGSGTDFTLTISSLQPEDFATYYCQQYYIYPYTFGQGTKVEIKRTVAAPDIEMTQSPDSLAVSLGERATINCRSSQSVLYSSSNRNYLAWYQQNPGQPPKLLIYWASTRESGVPDRFSGSGSGTDFTLTISSLQAEDVAVYYCQQYYSTPRTFGQGTKVEIK
notes: DVD-Ig, outer AB080 / inner AB062
[2]
  binding result: no binding (tested: 10-200 nM)

B6: DVD2349 (bispecific antibody)
VH: EVQLVESGGGLVQPGGSLRLSCAASGFSLTNYGVHWVRQAPGKGLEWLGVGWSGGNTDYNTPFTSRLTINKDNSKNTVYLQMNSLRAEDTAVYYCARALTWYDYEFAYWGQGTLVTVSSASTKGPQVQLQESGPGLVKPSQTLSLTCTVSGYSISSDFAWNWIRQPPGKGLEWMGYISYSGNTRYQPSLKSRITISRDTSKNQFFLKLNSVTAADTATYYCVTAGRGFPYWGQGTLVTVSS
VL: DILLTQSPGTLSLSPGERATLSCRASQSIYTNIHWYQQKPGQAPRLLIKYASESISGIPDRFSGSGSGTDFTLTISRLEPEDFAVYYCQQNLNWPTTFGQGTKLEIKRTVAAPDIQMTQSPSSMSVSVGDRVTITCHSSQDINSNIGWLQQKPGKSFKGLIYHGTNLDDGVPSRFSGSGSGTDYTLTISSLQPEDFATYYCVQYAQFPWTFGGGTKLEIK
[6]
  Kd: 0.76 nM
  koff: 0.00045 s⁻¹
  kon: 580000 M⁻¹ s⁻¹

B7: DVD2318 (bispecific antibody)
VH: EVQLVQSGGGLVKPGGSLRLSCAASGFTFSSYAMHWVRQAPGKGLEWVAVISYDGSNKYYADSVKGRFTISRDNSKNTLYLQMNSLRAEDTAVYYCARFSGWPNNYYYYGMDVWGQGTTVTVSSASTKGPEVQLVESGGGLVQPGGSLRLSCAASGFTFSIYSMNWVRQAPGKGLEWVSYISSSSSTIYYADSVKGRFTISRDNAKNSLYLQMNSLRDEDTAVYYCARDRGDFDAFDIWGQGTMVTVSS
VL: DVVMTQSPLSLPVTPGEPASISCRSSQSLLHSNGFNYVDWYLQKPGQSPHLLIYFGSYRASGVPDRFSGSGSGTDFTLKISRVEAEDVGVYYCMQALQTPPWTFGQGTKVEIRRTVAAPDIQMTQSPSSLSASVGDRVTITCQASQDITNYLNWYQQKPGKAPKLLIYDASNLETGVPSRFSGSGSGTDFTFTISSLQPEDIATYNCQQCENFPITFGQGTRLEIK
notes: DVD-Ig, outer AB005 / inner AB063
[2]
  binding result: no binding (tested: 10-200 nM)
[3]
  Kd: 17 nM
  koff: 0.00092 s⁻¹
  kon: 55000 M⁻¹ s⁻¹

B8: DVD2268 (bispecific antibody)
VH: EVQLVESGGGLVQPGGSLRLSCAASGFTFTDYTMDWVRQAPGKGLEWVADVNPNSGGSIYNQRFKGRFTLSVDRSKNTLYLQMNSLRAEDTAVYYCARNLGPSFYFDYWGQGTLVTVSSASTKGPQVQLQESGPGLVKPSETLSLTCTVSGGSVSSGDYYWTWIRQSPGKGLEWIGHIYYSGNTNYNPSLKSRLTISIDTSKTQFSLKLSSVTAADTAIYYCVRDRVTGAFDIWGQGTMVTVSS
VL: DIQMTQSPSSLSASVGDRVTITCKASQDVSIGVAWYQQKPGKAPKLLIYSASYRYTGVPSRFSGSGSGTDFTLTISSLQPEDFATYYCQQYYIYPYTFGQGTKVEIKRTVAAPDIQMTQSPSSLSASVGDRVTITCQASQDISNYLNWYQQKPGKAPKLLIYDASNLETGVPSRFSGSGSGTDFTFTISSLQPEDIATYFCQHFDHLPLAFGGGTKVEIK
[4]
  Kd: 18 nM
  koff: 0.00035 s⁻¹
  kon: 19000 M⁻¹ s⁻¹

B9: DVD2348 (bispecific antibody)
VH: QVQLQESGPGLVKPSQTLSLTCTVSGYSISSDFAWNWIRQPPGKGLEWMGYISYSGNTRYQPSLKSRITISRDTSKNQFFLKLNSVTAADTATYYCVTAGRGFPYWGQGTLVTVSSASTKGPEVQLVESGGGLVQPGGSLRLSCAASGFSLTNYGVHWVRQAPGKGLEWLGVGWSGGNTDYNTPFTSRLTINKDNSKNTVYLQMNSLRAEDTAVYYCARALTWYDYEFAYWGQGTLVTVSS
VL: DIQMTQSPSSMSVSVGDRVTITCHSSQDINSNIGWLQQKPGKSFKGLIYHGTNLDDGVPSRFSGSGSGTDYTLTISSLQPEDFATYYCVQYAQFPWTFGGGTKLEIKRTVAAPDILLTQSPGTLSLSPGERATLSCRASQSIYTNIHWYQQKPGQAPRLLIKYASESISGIPDRFSGSGSGTDFTLTISRLEPEDFAVYYCQQNLNWPTTFGQGTKLEIK
[6]
  Kd: 8.5 nM
  koff: 0.00024 s⁻¹
  kon: 28000 M⁻¹ s⁻¹

B10: DVD2249 (bispecific antibody)
VH: EVQLLESGGGLVQPGGSLRLSCAASGFTFSHYVMAWVRQAPGKGLEWVSSISSSGGWTLYADSVKGRFTISRDNSKNTLYLQMNSLRAEDTAVYYCTRGLKMATIFDYWGQGTLVTVSSASTKGPSVFPLAPQVQLQQWGAGLLKPSETLSLTCAVYGGSFSGYYWSWIRQPPGKGLEWIGEINHSGSTNYNPSLKSRVTISVETSKNQFSLKLSSVTAADTAVYYCARDKWTWYFDLWGRGTLVTVSS
VL: QSALTQPASVSGSPGQSITISCTGTSSDVGSYNVVSWYQQHPGKAPKLIIYEVSQRPSGVSNRFSGSKSGNTASLTISGLQTEDEADYYCCSYAGSSIFVIFGGGTKVTVLGTVAAPDIEMTQSPDSLAVSLGERATINCRSSQSVLYSSSNRNYLAWYQQNPGQPPKLLIYWASTRESGVPDRFSGSGSGTDFTLTISSLQAEDVAVYYCQQYYSTPRTFGQGTKVEIK
notes: DVD-Ig, outer AB116 / inner AB062
[1]
  Kd: 5.6 nM
  koff: 0.00022 s⁻¹
  kon: 39000 M⁻¹ s⁻¹

B11: DVD2218 (bispecific antibody)
VH: EVQLVQSGAEVKKPGSSVKVSCKASGGTFSSYAISWVRQAPGQGLEWMGGIIPIFGTANYAQKFQGRVTITADKSTSTAYMELSSLRSEDTAVYYCARAPLRFLEWSTQDHYYYYYMDVWGKGTTVTVSSASTKGPSVFPLAPEVQLLESGGGLVQPGGSLRLSCTASGFTFSSYAMNWVRQAPGKGLEWVSAISGSGGTTFYADSVKGRFTISRDNSRTTLYLQMNSLRAEDTAVYYCAKDLGWSDSYYYYYGMDVWGQGTTVTVSS
VL: SSELTQDPAVSVALGQTVRITCQGDSLRSYYATWYQQKPGQAPILVIYGENKRPSGIPDRFSGSSSGNTASLTITGAQAEDEADYYCKSRDGSGQHLVFGGGTKLTVLGQPKAAPDIQMTQFPSSLSASVGDRVTITCRASQGIRNDLGWYQQKPGKAPKRLIYAASRLHRGVPSRFSGSGSGTEFTLTISSLQPEDFATYYCLQHNSYPCSFGQGTKLEIK
notes: DVD-Ig, outer AB075 / inner AB011
Recombinant Human IGF1R [7]
  Kd: 5.3 nM
  koff: 0.00013 s⁻¹
  kon: 25000 M⁻¹ s⁻¹
